Laboratory results published in PMC13389190.

Molecular target: SpAB-T7 RNAP

Chain of Bamlanivimab (antibody) (VH): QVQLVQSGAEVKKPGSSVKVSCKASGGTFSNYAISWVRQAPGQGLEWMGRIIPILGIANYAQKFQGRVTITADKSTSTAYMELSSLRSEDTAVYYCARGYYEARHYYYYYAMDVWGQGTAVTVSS
Chain of Bamlanivimab (antibody) (VL): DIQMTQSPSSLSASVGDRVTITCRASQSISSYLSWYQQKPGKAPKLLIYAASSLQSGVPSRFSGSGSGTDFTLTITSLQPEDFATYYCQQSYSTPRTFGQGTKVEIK

## Bamlanivimab (antibody)
  MDC (minimal detectable concentration of Bamlanivimab in the ZF-RBD / SpAB-T7 RNAP sensor, 2.5% human serum): 12.7 nM
